This is an account of results in US7807881B2, “Methods to confer herbicide resistance” (Athenix Corp., priority 2003, dated 2010).

Data set [1] is described as follows: Acetolactate synthase activity (acetoin detection, absorbance 525 nm). As to conditions: 50 mM pyruvate, pH 7.0, 2 hours at 37° C. The format is biochemical. On the procedure: Acetolactate synthases are decarboxylating enzymes that condense two pyruvate molecules to form acetolactate with the release of a CO2 moiety from one of the pyruvate substrates. In the detection of the enzymatic reaction described by Pang and Duggleby (Pang and Duggleby (1999) Biochemistry 18:5222-5231), the product acetolactate is converted to acetoin by incubation with 1% H2SO4 for 15 minutes at 60° C. followed by neutralization with KOH. The acetoin is then detected as described by Westerfeld (Westerfeld (1945) J. Biol. Chem. 161:495-502), using 0.15% creatine and 1.5% alpha-naphthol (dissolved in 2.5 N NaOH). The red colored reaction product is quantified by absorbance at 525 nm.
Samples containing either 5 μg or 10 μg of GDC-2 were incubated in 50 mM pyruvate, 1 mM […] pyrophosphate, 10 mM MgCl2, 0.01 mM Flavin adenine dinucleotide (FAD), 100 mM potassium phosphate buffer pH 7.0 (total reaction volume of 50 μl) for 2 hours at 37° C. The reaction was stopped by the addition of 1 μl of 50% sulfuric acid (H2SO4) and incubated at 60° C. for 15 minutes. The reaction was neutralized by the addition of 30 μl of 1 N KOH followed by the addition of 10 μl of 1.5% creatine and 10 μl of 15% alpha-napthol dissolved in 2.5 N NaOH. The red colored reaction product was quantified by absorbance at 525 nm.

The next data set has as its system E. coli ΔaroA. Put plainly: Genetic complementation of aroA (EPSP synthase) deletion mutant. Conditions: ΔaroA plated on LB, M63, and M63 with phenylalanine, tryptophan, tyrosine. Format: cell-based. An excerpt:
The E. coli aroA gene codes for EPSP synthase, the target enzyme for glyphosate. […] However, genes encoding EPSPS activity can restore ability to grow […] upon aroA mutant E. coli strains. Thus, a test for genetic complementation of an aroA mutant is a highly sensitive method to test if a gene is capable of functioning as an EPSPS in E. coli. Such tests for gene function by genetic complementation are known in the art.
A deletion of the aroA gene was created in E. coli XL-1 MRF′ (Stratagene) by PCR/recombination methods known in the art and outlined by Datsenko and Wanner, (2000) Proc. Natl. Acad. Sci. USA 97:6640-6645. This system is based on the Red system that allows for chromosomal disruptions of targeted sequences. A large portion (1067 nt of the 1283 nt) of the aroA coding region was disrupted by the engineered deletion.
The ability of an EPSPS to complement the mutant phenotype of ΔaroA was confirmed. Clone pAX482, an E. coli expression vector containing the wild-type E. coli aroA gene, was transformed into ΔaroA, and transformed cells were selected. These cells (containing a functional aroA gene residing on a plasmid) were then plated on LB media, M63, and M63 with amino acid supplements. […]

The next data set relates to E. coli. Put plainly: Growth of E. coli clones in M9 minimal media containing glyphosate (OD600). The format is cell-based. As to conditions: 37° C., 28 hours after inoculation, triplicate. On the procedure:
Starter cultures of E. coli containing GDC-1 (full), GDC-2, or vector alone were grown overnight in LB media, diluted 1:1000 into 3 ml M9 minimal media containing 0, 2, 5, 10, 20 and 30 mM glyphosate and grown at 37° C. Each strain was grown in triplicate at each concentration. OD600 was measured at 0, 7, 24, and 28 hours after inoculation.

The nature of data set [2]: Standard pyruvate decarboxylase assay, coupled with alcohol dehydrogenase (absorbance at 340 nm). Format: biochemical. As to conditions: 100 ng of GDC-1 protein; decrease in absorbance at 340 nm. On the procedure: 100 ng of GDC-1 protein was tested for activity in a standard pyruvate decarboxylase assay (Gounaris et al. (1971) J. of Biol. Chem. 246:1302-1309). This assay is a coupled reaction where in the first step the pyruvate decarboxylase (PDC) converts pyruvate to acetaldehyde and CO2. The acetaldehyde produced in this reaction is a substrate for alcohol dehydrogenase, which converts acetaldehyde and β-NADH to ethanol and β-NAD. Thus, PDC activity is detected by virtue of utilization of β-NADH as decrease in absorbance at 340 nm in a spectrophotometer. GDC-1 as well as a control enzyme (pyruvate decarboxylase, Sigma) were tested in this assay.

Data set [3] is described as follows: In vitro modification of C14 labeled glyphosate, products analysed by HPLC. Format: biochemical. Conditions: 100 ng protein, 2 mM glyphosate, Na-Citrate pH 6.0, 1 mM TPP, 2 mM MgCl2, 60 minutes. On the procedure:
The ability of GDC-1 to modify glyphosate in vitro was tested by incubating GDC-1 with a mixture of radiolabeled and non-labeled glyphosate, and analyzing the reaction products by HPLC.
100 ng of GDC-1 purified protein was incubated with 20,000 cpm of C^14 labeled glyphosate (NaOOCCH2NH^14CH2PO3H2; Sigma catalog #G7014), mixed with unlabelled glyphosate to a final concentration of 2 mM in a reaction buffer of 200 mM Na-Citrate, pH 6.0, 1 mM TPP, 2 mM MgCl2. Reaction was allowed to proceed 60 minutes, then 5 μl was applied to HPLC column (Dionex AminoPac PA10 analytical (and guard) column, anion exchange resin; Dionex Corporation). The column was equilibrated with 150 mM sodium hydroxide. Fractions were eluted with a sodium acetate gradient of 150-300 mM sodium acetate. Single drop (40 uL) fractions were collected, and the radioactivity present in each fraction determined using a 96-well scintillation counter. […] Control experiments lacking purified GDC-1 show no peak at this elution time.

B1: GDC-2: Glyphosate resistance-conferring decarboxylase protein (SEQ ID NO:15) with TPP-binding domains, homologous to acetolactate synthase (protein)
chain: MMLRSRQASKALRALGQARHFTSTTQPAAVQAPRKVASGQRNQATAATATSAAPNVRATPSPAFNAEEQQQQKHSHVQPLVNPQKSDMDESFIGKTGGEIFHEMMLRQGVKHIFGYPGGAILPVFDAIYNSKHFDFILPRHEQGAGHMAEGYARASGKPGVVLVTSGPGATNVVTPMQDALSDGTPLVVFCGQVPTSAIGSDAFQEADVVGISRACTKWNVMVKNVAELPRRINEAFEIATSGRPGPVLVDLPKDVTAGILRRAIPTETALPALPSAASRAAMESSRKHLEHTIKRVADLVNKAKQPVIYAGQGIIQSEGGPELLKELADKASIPVTTTLQGLGGFDELDEKSLHMLGMHGSAYANMAMQEADLIIALGARFDDRVTLNVAKFAPGARAAAAEKRGGIVHFEVMPKNINKVVQATEAVEGNVGSNLKLLLPEVQAKTMDDRKEWFGKINEWKKKWPLSHYERAERHGLIKPQTLIEELSKLTADRKDKTYIATGVGQHQMWTAQHFRWRHPRSMITSGGLGTMGFGLPAAIGAKVAQPDALVFDIDGDASFGMTLTELATAAQFNIGVKVIVLNNEEQGMVTQWQNLFYEDRYAHTHQVNPDFMKLAESMRVQGRRCVDPEDVVDSLKWLINTDGPALLEVVTDKKVPVLPMVPAGSALHEFLVFDGEKDKKRRELMRERTSGLHG
modifications: Fungal isolate from soil sample
For B1, the “Absorbance 525 nm (acetolactate synthase activity)” value is given as 1.99 in data set [1] (5 μg GDC-2) and 3.13 in data set [1] (10 μg GDC-2). Besides, the “Complementation of the aroA mutation (growth of ΔaroA on M63 minimal media)” value in the data set on E. coli ΔaroA is on record as “neither GDC-1 nor GDC-2 are capable of complementing the aroA mutation”. For the same molecule, the “OD600 Mean” value in the data set on E. coli (0 mM glyphosate) worked out at 0.050; in the data set on E. coli (2 mM glyphosate), 0.054; with E. coli (5 mM glyphosate) it was 0.056; in the data set with E. coli (10 mM glyphosate), 0.056; with E. coli (20 mM glyphosate), 0.058.

B2: GDC-1: Glyphosate resistance-conferring decarboxylase protein (SEQ ID NO:22) with TPP-binding domains, homologous to pyruvate decarboxylase (protein)
chain: MASINIRVQNLEQPMDVAEYLFRRLHEIGIRSIHGLPGDYNPLALDYLPSCGLRWVGSVNELNAAYAADGYARVKQMGALITTFGVGELSAINGVAGAFSEHVPVVHIVGCPSTASQRNGMLLHHTLGNGDFNIFANMSAQISCEVAKLTNPAEIATQIDHALRVCFIRSRPVYIMLPTDMVQAKVEGARLKEPIDLSEPPNDPEKEAYVVDVVLKYLRAAKNPVILVDACAIRHRVLDEVHDLIEKTNLPVFVTPMGKGAVNEEHPTYGGVYAGDGSHPPQVKDMVESSDLILTIGALKSDFNTAGFSYRTSQLNTIDLHSDHCIVKYSTYPGVQMRGVLRQVIKQLDASEINAQPAPVVENEVAKNRDNSPVITQAFFWPRVGEFLKKNDIVITETGTANFGIWDTKFPSGVTALSQVLWGSIGWSVGACQGAVLAAADDNSDRRTILFVGDGSFQLTAQELSTMIRLKLKPIIFVICNDGFTIERFIHGMEAEYNDIANWDFKALVDVFGGSKTAKKFAVKTKDELDSLLTDPTFNAAECLQFVELYMPKEDAPRALIMTAEASARNNAKTE
modifications: Fungal isolate from soil sample
With B2, the Pyruvate decarboxylase activity entry in data set [2] is “showed activity as a pyruvate decarboxylase”. Further, in data set [3], the “Ability to modify glyphosate in vitro” value was “converts a portion of the labeled glyphosate to a product”. Moreover, the “Complementation of the aroA mutation (growth of ΔaroA on M63 minimal media)” value in the data set on E. coli ΔaroA is “neither GDC-1 nor GDC-2 are capable of complementing the aroA mutation”. Besides, the “OD600 Mean” value in the data set with E. coli (0 mM glyphosate) is given as 0.049; in the data set with E. coli (2 mM glyphosate) it was 0.056; with E. coli (5 mM glyphosate), 0.055; with E. coli (10 mM glyphosate) it was 0.057; in the data set on E. coli (20 mM glyphosate) it was 0.058.
